Assay results taken from patent US10259881 (dated 2019).
Where two headings read alike, the source gives them in different places.

T1: murine CD137 (mouse, UniProt P20334)
T1 chain: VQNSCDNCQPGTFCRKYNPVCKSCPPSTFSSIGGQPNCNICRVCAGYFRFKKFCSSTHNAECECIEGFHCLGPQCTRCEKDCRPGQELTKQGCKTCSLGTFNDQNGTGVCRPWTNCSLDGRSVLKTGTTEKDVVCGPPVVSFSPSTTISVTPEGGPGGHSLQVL


Columns and labels:
human CD137 [1] = molecular target: T2, human CD137 (human, UniProt Q07011); assay: SPR
murine CD137 = molecular target: T1, murine CD137
human CD137 [2] = molecular target: T2, human CD137; assay: SPR; remark: listed apart in the source
human CD137 [3] = molecular target: T2, human CD137; assay: SPR; remark: listed apart in the source
human CD137 [4] = molecular target: T2, human CD137; assay: SPR; remark: listed apart in the source

T2 sequence (Q07011 24-186): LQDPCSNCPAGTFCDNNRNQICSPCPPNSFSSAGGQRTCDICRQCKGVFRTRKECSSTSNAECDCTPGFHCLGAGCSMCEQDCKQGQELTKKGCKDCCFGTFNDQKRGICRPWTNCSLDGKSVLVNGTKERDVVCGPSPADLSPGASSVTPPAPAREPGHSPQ

Binder | Kd (human CD137 [1]) | binding result (murine CD137) | also measured
MSH1 (antibody, V domains shown) VH: QMQLVQSGAEVKKPGASVKVSCKASGYNFGGYYMHWVRQAPGQGLEWMGWVNPHSGGTNYAQKFQGRVTITRDTSASTAYMELSSLRSEDTAVYYCAREGEAWGLDLDLWGQGTLVTVSS VL: SYELTQPPSVSVAPGKTARITCGGNNIGSKSVHWYQQKPGQAPVLVIYYDSDRPSGIPERFSGSNSGNTATLTISRVEAGDEADYYCQVWDSSSVVFGGGTQLTVL | 0.0878 µM |  | 
MB12 (antibody, V domains shown) VH: QMQLVQSGAEVKKPGASVKVSCKASGYSLEGYYMHWVRQAPGQGLEWMGWINPNSGGTNYAQKFQGRVTITRDTSASTAYMELSSLRSEDTAVYYCAREGEAVGLDLDYWGQGTLVTVSS VL: SYELTQPPSVSVAPGKTARITCGGNNIGSKSVHWYQQKPGQAPVLVIYYDSDRPSGIPERFSGSNSGNTATLTISRVEAGDEADYYCQVWDSSSVVFGGGTQLTVL |  | no binding | Kd (human CD137 [2]): 0.155 µM
MSC8 (antibody, V domains shown) VH: QMQLVQSGAEVKKPGASVKVSCKASGYNFGGYYMHWVRQAPGQGLEWMGWVNPKSGGTNYAQKFQGRVTITRDTSASTAYMELSSLRSEDTAVYYCAREGEAVGLDLDYWGQGTLVTVSS VL: SYELTQPPSVSVAPGKTARITCGGNNIGSKSVHWYQQKPGQAPVLVIYYDSDRPSGIPERFSGSNSGNTATLTISRVEAGDEADYYCQVWDSSSVVFGGGTQLTVL |  | no binding | Kd (human CD137 [3]): 0.218 µM
MC8 (antibody, V domains shown) VH: QMQLVQSGAEVKKPGASVKVSCKASGYMPDGYYMHWVRQAPGQGLEWMGWINPRTGGTNYAQKFQGRVTITRDTSASTAYMELSSLRSEDTAVYYCAREGAAFRLELDAWGQGTLVTVSS VL: SYELTQPPSVSVAPGKTARITCGGNNIGSKSVHWYQQKPGQAPVLVIYYDSDRPSGIPERFSGSNSGNTATLTISRVEAGDEADYYCQVWDSSSVVFGGGTQLTVL |  |  | Kd (human CD137 [4]): 0.0302 µM
MD4 (antibody, V domains shown) VH: QMQLVQSGAEVKKPGASVKVSCKASGYNWTGYYMHWVRQAPGQGLEWMGWINPMAGGTNYAQKFQGRVTITRDTSASTAYMELSSLRSEDTAVYYCAREGWARGVELDMWGQGTLVTVSS VL: SYELTQPPSVSVAPGKTARITCGGNNIGSKSVHWYQQKPGQAPVLVIYYDSDRPSGIPERFSGSNSGNTATLTISRVEAGDEADYYCQVWDSSSVVFGGGTQLTVL | 0.0089 µM |  | 
MSA11 (antibody, V domains shown) VH: QMQLVQSGAEVKKPGASVKVSCKASGYSFTGYYMHWVRQAPGQGLEWMGWVNPKSGGTNYAQKFQGRVTITRDTSASTAYMELSSLRSEDTAVYYCAREGWARRIDLDEWGQGTLVTVSS VL: SYELTQPPSVSVAPGKTARITCGGNNIGSKSVHWYQQKPGQAPVLVIYYDSDRPSGIPERFSGSNSGNTATLTISRVEAGDEADYYCQVWDSSSVVFGGGTQLTVL |  |  | Kd (human CD137 [4]): 0.0469 µM
MB3 (antibody, V domains shown) VH: QMQLVQSGAEVKKPGASVKVSCKASGYQMRGYYMHWVRQAPGQGLEWMGWINPNSGGTNYAQKFQGRVTITRDTSASTAYMELSSLRSEDTAVYYCAREGEAVGLDLDYWGQGTLVTVSS VL: SYELTQPPSVSVAPGKTARITCGGNNIGSKSVHWYQQKPGQAPVLVIYYDSDRPSGIPERFSGSNSGNTATLTISRVEAGDEADYYCQVWDSSSVVFGGGTQLTVL |  | no binding | Kd (human CD137 [3]): 0.229 µM
MSB7 (antibody, V domains shown) VH: QMQLVQSGAEVKKPGASVKVSCKASGYSFSGYYMHWVRQAPGQGLEWMGWVNPMSGGTNYAQKFQGRVTITRDTSASTAYMELSSLRSEDTAVYYCAREGMAMRLELDKWGQGTLVTVSS VL: SYELTQPPSVSVAPGKTARITCGGNNIGSKSVHWYQQKPGQAPVLVIYYDSDRPSGIPERFSGSNSGNTATLTISRVEAGDEADYYCQVWDSSSVVFGGGTQLTVL | 0.0166 µM |  | 
